Data as given in US20110268668A1, “PROCESS FOR NEBULIZING AQUEOUS COMPOSITIONS CONTAINING HIGHLY CONCENTRATED INSULIN” (priority 1997, published 2011).
Values joined by “and” are separate entries in the source; they are usually repeats but may differ in a detail not shown here. Equal entries are not always repeated.

Columns and labels:
blood glucose level = assay: In vivo test in dog: blood glucose after inhaled highly concentrated insulin solution from RESPIMAT; details: anesthetized dog; six puffs of highly concentrated insulin solution from RESPIMAT; FIG. 5
Procedure: The insulin was administered to the dog anesthetized with pentobarbital after previously receiving basic sedation. The animal was intubated and ventilated as before. A total of six puffs of insulin solution were delivered from the RESPIMAT® device. Each puff was administered at the start of an inward breath. Between the breathing in phase and the breathing out phase there was a gap of 5 seconds. Before the next administration of insulin, two breath cycles were left with no intervention. Blood was taken one hour before administration, at the same time as administration and at various times thereafter over […]. The blood glucose level was measured in the fresh blood using the method of Trasch, Koller, and Tritscher (Klein. Chem. 30; 969 [1984]) using a REFLETRON® device made by Boehringer Mannheim.

[1] = Viscosity of aerosol preparation (Ostwald viscosimeter); type: physicochemical; details: aerosol preparation with about 35 mg/mL of insulin, pH 7.4
Procedure: Higher viscosity solutions of macromolecules with a viscosity of up to 1100×10^−6 Pa·s are preferred. With such solutions, an inhalable proportion of droplets containing an active substance of about 60% is obtained. The limiting viscosity numbers given were detected using an Ostwald viscosimeter using the method known from the literature. For comparison, the viscosity of water is 894×10^−6 Pa·s (measured at 25° C.).
The aerosol preparation thus produced has a concentration of about 35 mg/mL of insulin, the viscosity of the solution being about 1020×10^−6 Pa·s.

neopterin = assay: In vivo test in dog: serum neopterin after interferon omega by RESPIMAT inhalation vs intravenous
Procedure: Interferon omega was administered by inhalation and intravenous route in separate experiments on the same dog. The blood levels of interferon were measured immunologically and biologically at different times. In addition, the neopterin level in the blood was measured. Neopterin is a marker for immune activation; it is released by macrophages after interferon stimulation [see Fuchs et al., “Neopterin, Biochemistry and Clinical Use as a Marker For Cellular Immune Reactions”, Int. Arch. Allergy Appl. Immunol. 101: 1-6 (1993)]. Measurement of the neopterin level serves to quantify interferon activity.
The administration of interferon to the dog was carried out under pentobarbital anesthetic after previous basic sedation. The animal was intubated and subjected to artificial ventilation (volume-controlled respiration: volume per minute 4 L/min, rate 10 breaths/min). A total of 20 puffs were delivered by the RESPIMAT® device. Each puff was given at the start of an inward breath. After the breathing in phase there were five seconds gap before breathing out. […] Interferon omega was measured in heparin plasma by immunological methods using an ELISA and by biological methods by the inhibition of the destruction of encephalo-myocarditis virus infected A549 cells. Serum neopterin was determined by immunology. […]

[2] = system: encephalo-myocarditis virus infected A549 cells; assay: In vitro RESPIMAT nebulization, trap recovery of interferon omega by biological assay (inhibiting destruction of virus-infected cells); type: cell-based; details: same solutions
Description: (§1) The effectiveness of a nebulizer can be tested using an in vitro system in which a protein solution is nebulized and the spray mist is caught in a so-called “trap” (see FIG. 1). The activity of the protein in the aerosol reservoir (a) is compared with its activity in the trapped liquid (b), e.g., by means of an immunoassay or using an assay for the biological effectiveness of the protein. This experiment makes it possible to evaluate the degree of destruction of the protein by the nebulizing process. A second parameter of the aerosol quality is the so-called inhalable proportion, which is defined here as the proportion of the mist droplets with a […] median aerodynamic diameter (MMAD) of less than 5.8 μm. The inhalable proportion can be measured using an “Andersen Impactor”. For good protein absorption it is important not only to achieve nebulization without any substantial loss of activity but also to generate an aerosol with a good inhalable proportion (about 60%). […] The effectiveness of a nebulization device can also be tested in an in vivo system; in this case factors such as susceptibility to lung proteases come into play. […] Blood samples arc taken at suitable time intervals and the protein level in the plasma is then measured by immunological or biological methods.
(§2) The device was activated and a volume of about 12.9 μL, (one puff) was nebulized in an air current of 28 l/min. […] Interferon omega was measured in the reservoir solution and in the solution caught in the trap by immunological methods, using an ELISA, and biologically, by inhibiting the destruction of encephalo-myocarditis virus infected A549 cells. […] However, additional biological measurements are very important as they are a particularly sensitive and therapeutically relevant method of quantifying protein destruction.
(§3) In three experiments, 84%, 77%, and 98%, of the immunologically identifiable interferon, based on the starting solution, were found in the trap solution (b). […] The proportion of particles less than 5.8 μm in size (“inhalable proportion”) was measured. […]

[3] = In vitro RESPIMAT nebulization, trap recovery of interferon omega by ELISA
Description: as §1, §2, §3

[4] = Inhalable proportion of RESPIMAT spray mist in Andersen impactor; type: physicochemical; details: immunological measurements
Description: as §1, §3
In this experiment, the reservoir (a) of the RESPIMAT® device was filled with 3.3 mg/mL of manganese superoxide dismutase (MnSOD) in phosphate-buffered saline (PBS). […] The precise amount nebulized was determined gravimetrically (measurements in three succeeding tests: 12.8, 13.7, and 14.3 mg). […] MnSOD was determined in the reservoir solution and in the solution caught in the trap, immunologically using an ELISA and enzymatically by the reduction in the quantity of superoxide after a xanthine/xanthine oxidase reaction. […]

[5] = In vitro RESPIMAT nebulization, MnSOD enzymatic activity (reduction of superoxide after xanthine/xanthine oxidase reaction); type: biochemical; details: 3.3 mg/mL MnSOD in PBS
Procedure: In this experiment, the reservoir (a) of the RESPIMAT® device was filled with 3.3 mg/mL of manganese superoxide dismutase (MnSOD) in phosphate-buffered saline (PBS). The device was operated and a volume of about 13 μL (one puff) was nebulized in an air current of 28 L/min. The precise amount nebulized was determined gravimetrically (measurements in three succeeding tests: 12.8, 13.7, and 14.3 mg). The nebulized solution was caught in a trap (b). This trap contained 20 mL of PBS. In addition, 2 mL of 5% bovine serum albumin was added to stabilize proteins in the trap. MnSOD was determined in the reservoir solution and in the solution caught in the trap, immunologically using an ELISA and enzymatically by the reduction in the quantity of superoxide after a xanthine/xanthine oxidase reaction. In three tests, 78%, 89%, and 83% of the immunologically identifiable MnSOD of the nebulized solution were measured in the trapped solution (b). […] The inhalable proportion (immunological measurements) was 61%.

[6] = In vitro RESPIMAT nebulization, trap recovery of MnSOD by ELISA; details: 3.3 mg/mL MnSOD in PBS, one puff, 28 L/min, three tests
Description: The effectiveness of a nebulizer can be tested using an in vitro system in which a protein solution is nebulized and the spray mist is caught in a so-called “trap” (see FIG. 1). The activity of the protein in the aerosol reservoir (a) is compared with its activity in the trapped liquid (b), e.g., by means of an immunoassay or using an assay for the biological effectiveness of the protein. This experiment makes it possible to evaluate the degree of destruction of the protein by the nebulizing process. A second parameter of the aerosol quality is the so-called inhalable proportion, which is defined here as the proportion of the mist droplets with a […] median aerodynamic diameter (MMAD) of less than 5.8 μm. The inhalable proportion can be measured using an “Andersen Impactor”. […] Blood samples arc taken at suitable time intervals and the protein level in the plasma is then measured by immunological or biological methods.
In this experiment, the reservoir (a) of the RESPIMAT® device was filled with 3.3 mg/mL of manganese superoxide dismutase (MnSOD) in phosphate-buffered saline (PBS). […] The precise amount nebulized was determined gravimetrically (measurements in three succeeding tests: 12.8, 13.7, and 14.3 mg). […] In three tests, 78%, 89%, and 83% of the immunologically identifiable MnSOD of the nebulized solution were measured in the trapped solution (b). […]

[7] = concentrated interferon omega solution 53 mg/mL, four tests

insulin
blood glucose level after administration of insulin by inhalation (blood glucose level): lowering of blood glucose level | viscosity of the solution [1]: about 1020 ×10^−6 Pa·s

interferon omega
neopterin levels after inhalation compared with intravenous administration of 0.32 mg of interferon (neopterin; 20 puffs RESPIMAT, 5 mg/mL (about 1.28 mg) vs 0.32 mg i.v., FIG. 3): significantly higher and longer lasting levels | serum neopterin level after administration by inhalation (neopterin; 20 puffs from RESPIMAT, 5 mg/mL solution (about 1.28 mg)): very high serum neopterin level | biologically active interferon in the trapped solution ([2]; 5 mg/mL formulation with additional human serum albumin (0.5%)): 60% and 54% and 66% | recovery of the biologically identifiable interferon in the trapped solution ([2]; 5 mg/mL interferon omega in 50 mM trisodium citrate, 150 mM NaCl, pH 5.5, three experiments): 54% and 47% and 81% | recovery of the biologically identifiable interferon in the trapped solution [2, 7]: 95% and 98% and 61% and 83% | immunologically identifiable interferon found in the trap solution, based on the starting solution ([3]; 5 mg/mL formulation with additional human serum albumin (0.5%), three tests): 79% and 83% | immunologically identifiable interferon found in the trap solution, based on the starting solution ([3]; 5 mg/mL interferon omega in 50 mM trisodium citrate, 150 mM NaCl, pH 5.5, one puff, air current 28 l/min, ELISA, three experiments): 84% and 77% and 98% | immunologically identifiable interferon found in the trapped solution, based on the starting solution [3, 7]: 100% and 60% and 68% and 72% | inhalable proportion (particles less than 5.8 μm) ([4]; 5 mg/mL interferon omega solution, Andersen impactor, 28 l/min): 70% | inhalable proportion ([4]; interferon omega formulation with additional human serum albumin (0.5%)): 67%

B1: manganese superoxide dismutase (protein, UniProt P04179 25-222, looked up)
Superoxide dismutase [Mn], …: KHSLPDLPYDYGALEPHINAQIMQLHHSKHHAAYVNNLNVTEEKYQEALAKGDVTAQIALQPALKFNGGGHINHSIFWTNLSPNGGGEPKGELLEAIKRDFGSFDKFKEKLTAASVGVQGSGWGWLGFNKERGHLQIAACPNQDPLQGTTGLIPLLGIDVWEHAYYLQYKNVRPDYLKAIWNVINWENVTERYMACKK
notes: 3.3 mg/mL of manganese superoxide dismutase (MnSOD) in phosphate-buffered saline
loss in enzymatic activity after nebulization [5]: no measurable loss | inhalable proportion ([4]; 3.3 mg/mL MnSOD in PBS): 61% | immunologically identifiable MnSOD of the nebulized solution measured in the trapped solution [6]: 78% and 89% and 83%
